As a reminder, the Kd is the equilibrium constant for the complex coming apart. Read a low Kd as tighter binding.

Assay [1] has as its target T1, human FcγRIIa (CD32) expressed on transfected COS-7 cells (human, UniProt P12318 34-317).
T1 sequence (looked up): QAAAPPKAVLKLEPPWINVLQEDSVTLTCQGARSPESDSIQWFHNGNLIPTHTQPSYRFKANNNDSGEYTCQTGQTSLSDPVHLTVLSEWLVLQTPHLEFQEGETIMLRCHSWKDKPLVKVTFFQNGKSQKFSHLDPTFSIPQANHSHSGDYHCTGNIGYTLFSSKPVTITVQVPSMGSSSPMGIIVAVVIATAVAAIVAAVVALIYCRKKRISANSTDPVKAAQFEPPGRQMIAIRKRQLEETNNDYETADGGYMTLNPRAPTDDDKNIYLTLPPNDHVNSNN
Kind of assay: flow cytometry on cells. (In general: Flow cytometry measures light scatter and fluorescence of single cells or particles in a stream.)

For assay [2], the target named is FcγRII (CD32) on K-562 cells (human (endogenous in K-562)) (UniProt P12318). Kind of assay: flow cytometry on cells.

B1: C-reactive protein (CRP), human (natural protein, UniProt P02741 19-224, looked up)
chain: QTDMSRKAFVFPKESDTSYVSLKAPLTKPLKAFTVCLHFYTELSSTRGYSIFSYATKRQDNEILIFWSKDIGYSFTVGGSEILFEVPEVTVAPVHICTSWESASGIVEFWVDGKPRVRKSLKKGYTVGAEASIILGQEQDSFGGNFEGSQSLVGDIGNVNMWDFVLSPDEINTIYLGGPFSPNVLNWRALKYEVQGEVFTKPQLWP
In the case of B1, the Kd came out at 66 nM in assay [1] and 97 nM in assay [2].

Source of the values: publication PMC2195602 (The Journal of Experimental Medicine, 1999).
